Reference: the nanobody polyreactivity screen of Harvey et al. (2022)

Experiment: yeast display, Sf9 membrane polyspecificity reagent, FACS + sequencing; frameworks hold sequencing errors
In short: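 In a synthetic yeast display library (Saccharomyces cerevisiae BJ5465), nanobody expression was induced with galactose for 36–48 hours. FACS gates were set low and high (top ~1%) using anti-HA fluorescence for expression and streptavidin fluorescence for binding of the Sf9 membrane reagent. Each polyreactivity label is drawn from the gate of origin.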

Sequence | polyreactivity (PSR sort gate)
QVQLVESGGGLVQAGGSLRLSCAPSGFIFGHNTMGWYRQAPGKECELVARITSSGGRTYYADSVKGRFTISRDNAKNTVYLQMNSLKPLDSAVYYCAAVSPNTAYDYWGQGTQVTVSS | high polyreactivity
QVQLVESGGGLVQAGGSLRLSCAASGSIFSTYTMGWYRQAPGKERELVAGISKSGGSTYYADSVKGRFTISRDNAKNTVYLQMNSLKPEDTAVYYCAAPVPKTDKLLRMYYWGQGTQVTVSS | high polyreactivity
QVQLVESGGGLVQAGGSLRLSCAASGSTFDTYAMGWYRQAPGKERELVAAISYSGASTYYADSVKGRFTISRDNAKNTVYLQMNSLKPEDTAVYYCSADGGYYWLYDYWGQGTQVTVSS | low polyreactivity
QVQLVESGGGLVQAGGSLRLSCAASGRIFYVYTLGWYRQAPGKERELVAAITSGGSTNYADSVKGRFTISRDNAKNTVYLQMNSLKPEDTAVYFCAKKAWVIYNRKFSSGYDYWGQGTQVTVSS | low polyreactivity
QVQLVESGGGLVQAGGSLRLSCAASGRIFLPNAMGWYRQAPGKEREFVASISWSGGSTYYADSVKGRFTISRDNAKNTVYLQMNSLNPEDTAVYYCAAQSPAYYSKSYWGQGTQVTVSS | low polyreactivity
QVQLVESGGGLVQAGGILRLSCAASGSTGTYMGSYRQAPGKEREMVAAIDNIGDNTYYADSVKGRFTISRDNAKNTVYLQMNSLKPEDTAVYYCPADFYVYYPWLFEYDYWGQGTQVTVSS | low polyreactivity
QVQLVESGGGLVQAGGSPRLSCADSGGIFGIYAMGWYRPAPGKERELVAAIRRGGSTSYADSVKGRFTISRDNAMNTVYLQMNSLKPEDTAVYYCAAGSYYRYGYWGQGTQVTVSS | high polyreactivity
QVQLVESGGGLVQAGGSLRLSCAASGSIFLTNAMGWYRQAPGKEREMVAAITLSGGITYYADSVKGRFTISRDNAKNNVYLQMNILKPEDTAVYYCAADVPGGIGNGGGYDYWGQGTQVTVSS | low polyreactivity
QVQLVESGGGLVQAGGSLRLSCPASGIIFNDYAMGWYRQAPGKEREMVAAITSNGDNTYYADSVKGRFTISRDNAKNTVYLQMNSLKPEDTAVYYCAVDGSFAADFDNYLEEYGYWGQGTQVTVSS | low polyreactivity
QVQLVESGGGLVQAGGSLRLSCAASGSTIGFYTMGWYRQAPGKERELVATISYSGGDTYYADSVKGRFTISRDNAKNTVYLQMNSLKPEDTAVYYCAADLGDYVTTYSWLDSWGQGTQVTVSS | low polyreactivity
QVQLVESGGGLVQAGGSLRLSCAASGSTFSTYAMGWYRQAPGKERELVARITRSDTGTYYADSVKGRFTISRDNAKNTGYLQMNSLKPEDTAVYYCAADGWYDDSGWYYGYDYWGQGTQVTVSS | low polyreactivity
QVQLEESGGGLVQAGGSLRLSCAASGRSFWPNAMGWYRQAPGKERELVAAISSGGSTNYADSVKVRFTISRDNAKNTVYLQMNSLKPEDTAVYYCASDGQGDKYDYYGHNFWGQGTQVTVSS | low polyreactivity
QVQLVESGGGLVQAGGSLRLSCAASGSTFYYYAMGWYRQAPGKERELVASISDDGSTNYADSVKGRFTISRDNAKNTVYLQMNSLKPEDTAVYYCAAVWWHQFGSAWYQMGYWGQGTQVTVSS | low polyreactivity
QVQLVESGGGLVQAGGSLRLSCAASGRIFRWNAMGWYRQAPGKERELVAVISSGGSTNYADSVKGRFTISRDNAKNTVYLQMNSLKPEDTAVYYCAKGLIRYSHLDYWGQGTQVTVSS | low polyreactivity
QVQLVESGGGLVQAGCSLRLSCAASGRIFRYYAMGWYRQAPGKERELVAAISWSGGSTYYADSVKGRFTISRDNAKNTVYLQMNSLKPEYTAVYYCAARYSLKGGRYDYWGQGTQVTVSS | high polyreactivity
QVQLVESGGGIVQAGGSLRLSCAASGFTFYYNAMGWYRQAPGKERELVAAISYRGGSTYYADSVKGRFTISRDNAKNTVYFQMNSLKPEDTAVYYCATRDPAFYRRYDYWGQATQVTVSS | high polyreactivity
QDLLVESGGGLVQAGGSLRLSCAASGRTFWDYTMGWYRQAPGKDRELVASITRTCRTNYADSVKGRFTISRDNAKNTVYLQMNSLKTEDTAVYYCAAEVGYQGWYPSGYKFDYWGQGTQVTVSS | high polyreactivity
QVQLVESGGGLVQAGGSLRLSCAASGSTFTGYAMGWYRQAPGKERELVAAISISGGRTFYADSVKGRFTISRDNAKNTVYLQMNSLKPEDTAVYFCAAYLRGSKYSFDYWVQGTQVTVSS | high polyreactivity
QVQLVESGGGLVQAGGSLRLSCAASGFIFRSYVMGWYRQAPGKEREFVAVITSSGGRTYYADSVKGRFTISRDNAKNTVYLQMNSLKPEDTAVYYCAATRRYPPRRVWYDYWGQGTEVTVSS | high polyreactivity
QVQLVESGGGLVQAGGSLRLSCAASGFTFATNAMGWYRQAPGTERELVAAISSRGGSTYYADSVKGRFTISRDNAKNTVYLQMNSLKPEDTAVYYCNAYRRLGGYDYWGQGTQVTVSS | high polyreactivity
QVQLLESGGGLVQAGGSLRLSCAASGRTFTLYTMGWYRQAPGKERELVAAISARGGSTYYADSVKGRFTISRDNAKNTVYLQMNSLKPEDTAVYYCAAESNRLRYYYWGQGTQVTVSS | high polyreactivity
QVQLVESGGGLVQAGGSLRLSCAAYGSTFSWYTMGWYRQAPGKERELVAAISWSGGRTYYADSVKGRFTISRDNAKNTVYLQMNSLKPEDTAVYYCAAYDYRYSLGDYQFYYWGQGTQVTVSS | low polyreactivity

Sequence | polyreactivity (PSR sort gate)
QDQHVESGGGLVQAGGSLRLSCAASGLTFAVYTMGWYRPAAGKERELVAAITWDGGITYYADSVKGRFTISRDNAKNTVYLQMNSLKPEDTAVYYCAADSREVSTTAYYYWGQGTQVTLSS | low polyreactivity
QVQLVESGGGLVQAGGSLRLSCAASGSTFDDNAMGWYRQAPGKERELVAGISTNGGSTSYADSVKGRFTISRDNAKNTVYLQMNSLKPEDTAVYYCAKGMYVQFDYWGQGTQVTVSS | low polyreactivity
QVQLVESGGGLVQAGGSLRLSCAASGYTFGYYTMGWYRQAPGKERELVASIDSGGGTNYADSVKGRFTISRDNAKNTVYLQMNSLKPEDTEVYYCAAEYPLYWVDDFESGWRYYYWGQGTQVTVSS | low polyreactivity
QVQLVESGGGLVQAGGSLRLSCAASGSIFTSYAMGWYRQAPGKERELVAAISRSGARTYYADSVKGRFTISRDNAKNTVYLLMNCLKPEDTAVYYCAAVHWRTTGGYDYWGQGTQVTVSS | high polyreactivity
QVQLVESGGGLVQAGGSLRLSCAASGSTFLSYAMGRYRQAPGKERELVAAITGSGGNTYYADSVKGRFTISRDNAKNSVYLQMNSLKPEDTAVYYCAADTSYWYDYYIDYVGYYYWGQGTQVTVSS | high polyreactivity
QVQLVESGGGLVQAGGSLRLSCAASGSTFGSYARGWYRPAPGKERELVAAISRTGGSTRYADSVKGRFTISRDNAQNSVYFQMNSLKPEDSAVYYCNARLSSYSTIRGVYWGQGTQVTVSS | high polyreactivity
QVQLVESGGGLVQAGGSLRLSCAASGFIFRYYAMGWYRQAPGKERELVASIVWSGGNTYYADSVKGRFTISRDNAKNTVYLQMNSLKPEDTAVYYCNRRGMDWGQGTQVTVSS | low polyreactivity
QVQLVESGGGLVQAGGSLRLSCSASGRTFSRYAMGWYSQAPGTERELVATISRRGGSTYYADSVKGRFTISRDNAKNTVYLQMNSLKPEDTAVYYCAARLYTQYYYWGQGTQVTVSS | high polyreactivity
QVQLVESGGGLVQAGGSLRLSCAASGRILYRYDMGWYRQAPGKERELVAAISRRGGSTTYADSVKGRFTISRDNAKNTVYLQMNSLKPEDTAVYYCATDYKYAAPTVIESDYWGQGTEVTVSS | high polyreactivity
QVQLVESGGGLVQAGGRLRLSCAASGFIFIRNAMGWYRQAPGKERELVAAITRSGGRTYYADSVKGRFTISRDKAKNTVYLQMNSLKPEDTAVYYCAADADAAWGQGTQVTVSS | high polyreactivity
QVQLVESGGGLVQAGGSLRLSCAASGSTFRGNTMGWYRQAPGKERELVAVISWSDGHTYYADSVKGRFSSSRDYAKNTGYLQMNSLKPEDPAVYYCAAPDPFYDLDSWGQGTQVTVSS | high polyreactivity
QVQLVESGGGLVQAGGSLRLSCAASGRIIGKNAMGWYRQAPGEERELVAAIRYNGGRTYYADSVKGRFTISRDNAKNTVYLQMNSLKPEDTAVYYCATRTYRVDPEFGYWGQGTQVTVSS | high polyreactivity
QVQLVESGGGLVQAGGSLRLSCAASGGTFWVNMGWYRQAPGKEREFVAAITWSAGSTYYADSVKGRFTISRDNAKNTVYLQMNSLKPEDTAVYYCAGGGGHYQEYLMEDYWGQGTQVTVSS | high polyreactivity
QVQLVESGGGLVQAGGSLRLSCAASGIIFQRNAMGWYRQAPGQERELVAAISSGGRTYYADSVKGRFTISRDNAKNTVYLQMNSLKPEDTAVYYCNAASYSRGRARYDYWGQGTQVTVSS | high polyreactivity
QVQLVESGGGLVQAGGSLRLSCAASGFIFSQNAMGWYRQAPGKERELVAAITSGGGTNYADSVKGRFTISRDNAKNTVYLQMNSLKPEDTAVYYCAADDEKRYSYQTYFERDYWGQGTQVTVSS | low polyreactivity
QVQLVESGGGLFQAGGSLRLSCAASGFTFGIYAMGWYRQAPGKERELVAAITKRGGITSYADSVKGRFTISRDNAKNTVYLQMNSLKPEDTAVYYCAKIGGFLSYWSGDYWGQGTQVTVSS | low polyreactivity
KVQLVESGGGLVQAGGSLRLSCAASGSTFSLYTLGGYRQAPGTERELVAAITNGGSTKYADSVKGRFTISRDNAKNTDYFQMNSLKPEDTAVYYCAALYSHYYWIEYDYWGQGTQVTVST | low polyreactivity
QVQLVESGGGLVQAGGSLSLSCAASGRTLYQYAMGWSRQAPGKERELVAAITTSGGSTYYADSVKGRFTISRDNAKNTVYLQMNSLKPEDTAVYYCAAPYTGYRERGYYKSDYWGQGTQVTESS | low polyreactivity
QFQLVESGGGLVQAGGSLRLSCAASGRIFDFYAMGWYREAPGKERELVAAISWRGGSTYYAHSVKGRFTISRDNAKNTVYLQMNSLKPEDTAVYYCATRFGPRYYWGQGTQVTVSS | low polyreactivity
QVQRVESGGGLVQAGGSLRLSCAASGSIFYQYAMGWYRQAPGKEREVVAAITIGGSTNYADSVKGRFTISRDNAKNTVYLQMNSLKPEDTAVYYCNADKNWYGHEYDYWGQGTQVTVSS | low polyreactivity
QVQLVESGGGLVQAGGSLRLSCAASGRILGQYVMGWYRQAPGKERELVASIRSGGVSTYYADSVKGRFTISRDNAKNTVYLQMNSLKPEDTAVYYCATGSPGPRRYKFDYWGQGTQVTVSS | low polyreactivity
